Assay results: patent publication US20050148763A1, “Peg-binding pth or peg-binding pth derivative” (Chugai Seiyaku Kabushiki Kaisha, priority 2002, published 2005)
pEC50: −log10 of the molar value.

Tests used:
[1] = Hypercalcemic effect of PEG-[Cys^35]-PTH(1-35) in normal female DDY mice; format: in vivo; settings: for Blood iCa level Hour 1: 1 hour after administration; for Blood iCa level Hour 3: 3 hours; for Blood iCa level Hour 6: 6 hours; for Blood iCa level Hour 9: 9 hours; for Blood iCa level Hour 24: 24 hours; for Blood iCa level Hour 0: before administration
Description: 2 k, 5 k and 20 k PEG-[Cys^35]-PTH(1-35) were also adjusted similarly to 30, 10 and 2 nmol/mL (calculated as PTH) and allowed to stand on ice immediately before administration.
Using female DDY mice at 6 weeks of age (Japan SLC, Inc.), the corrected level of ionized calcium at pH 7.4 was determined for each sample in the same manner as shown in (1) above. The mice received subcutaneous administration of each drug at a dose of 5 mL/kg. The buffer was administered to a group of 5 mice. […] 150 nmol/kg 2 k, 5 k and 20 k PEG-[Cys^35]-PTH(1-35) were administered to groups of 4 mice each. 50 and 10 nmol/kg 2 k, 5 k and 20 k PEG-[Cys^35]-PTH(1-35) were administered to groups of 5 mice each. At 1, 3, 6, 9 and 24 hours after administration, blood was collected by orbital puncture to monitor the time course of corrected blood ionized calcium levels.

human PTH1 receptors [2] = molecular target: T1, human PTH1 receptors (Homo sapiens, UniProt Q03431); assay: in vitro ability to produce cAMP, HKRK-B64 cells; format: cell-based; settings: Table 2(2), n=2-3
T1 construct: expressed in transfected cells; host or cells: HKRK-B7 and HKRK-B64 cells (derived from pig kidney LLC-PK1 cells)
T1 sequence (Q03431 27-593): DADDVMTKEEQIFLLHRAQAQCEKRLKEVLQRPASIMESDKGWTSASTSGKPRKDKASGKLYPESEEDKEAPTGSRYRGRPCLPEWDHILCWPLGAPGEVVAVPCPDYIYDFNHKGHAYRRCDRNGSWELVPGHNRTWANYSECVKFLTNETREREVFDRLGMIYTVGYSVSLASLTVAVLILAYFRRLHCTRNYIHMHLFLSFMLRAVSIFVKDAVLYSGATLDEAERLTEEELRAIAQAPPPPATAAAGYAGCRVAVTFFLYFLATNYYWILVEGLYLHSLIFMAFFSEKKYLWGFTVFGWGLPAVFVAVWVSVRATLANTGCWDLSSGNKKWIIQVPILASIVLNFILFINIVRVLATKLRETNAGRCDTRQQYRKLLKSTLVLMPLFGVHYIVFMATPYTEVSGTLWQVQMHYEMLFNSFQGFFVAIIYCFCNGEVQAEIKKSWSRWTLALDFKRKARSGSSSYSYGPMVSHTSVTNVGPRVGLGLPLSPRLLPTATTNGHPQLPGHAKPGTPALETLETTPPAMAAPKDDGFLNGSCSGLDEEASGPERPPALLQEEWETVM
Description: Each PEG-PTH sample was assayed for its ability to produce cAMP (indicative of the increasing effect of PTH on bone mass) as follows. HKRK-B7 and HKRK-B64 cells, genetically modified from pig kidney-derived LLC-PK1 cells to overexpress human PTH1 receptors at levels of about 1×10^6 and 9×10^4 receptors per cell, respectively, as well as EW29 cells expressing about 1.9×10^5 rat PTH1 receptors per cell (Takasu et al., J. Bone. Miner. Res. 14: 11-20, 1999) were grown in DMEM supplemented with 10% FBS, 1% penicillin and 1% streptomycin. These cells were seeded in 96-well plates at 1×10^5 cells/well and incubated overnight. On the following day, the cells were washed once with 200 μL binding buffer (50 mM Tris-HCl/100 mM NaCl/5 mM KCl/2 mM CaCl2/5% inactivated horse serum/0.5% inactivated bovine serum, pH 7.7), followed by addition of 100 μL cAMP assay buffer (DMEM/2 mM 3-isobutyl-1-methylxanthine/1 mg/mL bovine serum albumin/35 mM HEPES-NaOH, pH 7.4) on ice. […] After removing the reaction solution, the plates were placed on powdered dry ice to freeze the cells and then removed from the dry ice. The cells were thawed with 50 μL of 50 mM HCl and frozen again on dry ice. The level of intracellular cAMP was determined with a commercially available EIA kit (Biotrak cAMP EIA system, Amersham).

human PTH1 receptors [3] = molecular target: T1, human PTH1 receptors; assay: in vitro ability to produce cAMP, HKRK-B7 cells; format: cell-based; settings: Table 2(1), n=2-3
Description: (§1) Each PEG-PTH sample was assayed for its ability to produce cAMP (indicative of the increasing effect of PTH on bone mass) as follows. […] These cells were seeded in 96-well plates at 1×10^5 cells/well and incubated overnight. […] After removing the reaction solution, the plates were placed on powdered dry ice to freeze the cells and then removed from the dry ice. The cells were thawed with 50 μL of 50 mM HCl and frozen again on dry ice. The level of intracellular cAMP was determined with a commercially available EIA kit (Biotrak cAMP EIA system, Amersham).

rat PTH1 receptors = molecular target: T2, rat PTH1 receptors (Rattus norvegicus, UniProt P25961); assay: in vitro ability to produce cAMP, EW29 cells; format: cell-based; settings: Table 2(3), n=2-3
T2 construct: expressed in transfected cells; host or cells: EW29 cells
T2 sequence (P25961 27-591): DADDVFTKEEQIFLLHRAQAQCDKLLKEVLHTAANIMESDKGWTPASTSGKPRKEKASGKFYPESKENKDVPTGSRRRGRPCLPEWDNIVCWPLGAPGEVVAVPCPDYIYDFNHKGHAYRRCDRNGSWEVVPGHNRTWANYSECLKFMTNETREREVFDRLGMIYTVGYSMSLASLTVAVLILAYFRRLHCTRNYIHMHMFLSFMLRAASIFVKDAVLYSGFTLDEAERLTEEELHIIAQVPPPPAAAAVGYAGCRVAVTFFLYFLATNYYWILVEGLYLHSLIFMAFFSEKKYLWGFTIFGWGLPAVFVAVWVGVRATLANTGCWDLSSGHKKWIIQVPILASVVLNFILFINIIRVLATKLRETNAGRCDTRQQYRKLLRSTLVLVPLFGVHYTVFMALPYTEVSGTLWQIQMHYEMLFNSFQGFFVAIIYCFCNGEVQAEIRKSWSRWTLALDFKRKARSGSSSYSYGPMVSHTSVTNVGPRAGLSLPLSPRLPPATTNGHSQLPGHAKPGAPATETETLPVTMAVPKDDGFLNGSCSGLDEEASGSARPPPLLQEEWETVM
Description: as §1

[4] = Pharmacokinetics and bioavailability in rats by subcutaneous route; format: in vivo; settings: subcutaneous, 80 μg/mL at 1 mL/kg
Description: Each sample was adjusted to 80 μg/mL by dilution with 25 mmol/L citrate-phosphate buffer (pH 5.0) containing 100 mmol/L NaCl and 0.05 vol % Tween 20 to give a solution for administration. Male SD rats at 6 weeks of age (CLEA Japan, Inc.) were provided for this experiment. Intravenous injection was performed on rats having polyethylene tubes (SP-31, Natsume Seisakusho Co., Ltd.) inserted into the femoral artery and vein. The solutions thus prepared were each administered at a dose of 1 mL/kg through a polyethylene tube inserted into the femoral vein, and blood was collected through a polyethylene tube inserted into the femoral artery before administration and at 5, 15, 30 and 45 minutes as well as 1, 2, 4, 6, 8 and 24 hours after administration. Subcutaneous administration was performed on rats having polyethylene tubes inserted into the femoral artery. The solutions prepared above were each subcutaneously administered at a dose of 1 mL/kg to the dorsal neck region of the rats, and blood was collected in the same manner as used for intravenous injection. These blood samples were centrifuged to collect plasma and stored at −40° C. until assayed for PTH(1-34) or PEG-PTH(1-34) levels.
The level of PTH(1-34) or PEG-PTH(1-34) was determined by RIA analysis using a Rat PTH IRMA Kit (Immutopics). A Cobra Quantum Model 5005 gamma counter (Packard) was used to measure radioactivity for each sample. The plasma level of PTH(1-34) or PEG-PTH(1-34) was calculated from a calibration curve prepared using PTH(1-34) or PEG-PTH(1-34). The Winnonlin program Ver. 2.1 (Scientific Consulting Inc.) was used to analyze the time course of changes in the calculated plasma PTH(1-34) or PEG-PTH(1-34) levels (FIG. 3: by intravenous route; FIG. 4: by subcutaneous route) to calculate the following as pharmacokinetic parameters: time required to reach the maximum plasma level (Tmax); maximum plasma level (Cmax); area under the curve of plasma levels (AUC); plasma half-life (t1/2); total body clearance (Cltotal); mean residence time in the body (MRT); and bioavailability (BA). […]

5 k PEG-[Cys^35]-hPTH(1-35): [Cys^35]-hPTH(1-35) conjugated with 5 kDa PEG (SVSEIQLMHNLGKHLNSMERVEWLRKKLQDVHNFC; Parathyroid hormone 5 kDa PEG at Cys35; UniProt P01270 32-66, looked up, variant V35C)
Blood iCa level Hour 1 ([1]; 10 nmol/kg sc): 1.44 ± 0.02 mM
Blood iCa level Hour 3 ([1]; 10 nmol/kg sc): 1.50 ± 0.02 mM
Blood iCa level Hour 6 ([1]; 10 nmol/kg sc): 1.43 ± 0.02 mM
Blood iCa level Hour 9 ([1]; 10 nmol/kg sc): 1.28 ± 0.04 mM
Blood iCa level Hour 24 ([1]; 10 nmol/kg sc): 1.36 ± 0.03 mM
Blood iCa level Hour 0 ([1]; 10 nmol/kg sc): 1.30 ± 0.04 mM
Blood iCa level Hour 1 ([1]; 50 nmol/kg sc): 1.43 ± 0.03 mM
Blood iCa level Hour 3 ([1]; 50 nmol/kg sc): 1.49 ± 0.04 mM
Blood iCa level Hour 6 ([1]; 50 nmol/kg sc): 1.48 ± 0.03 mM
Blood iCa level Hour 9 ([1]; 50 nmol/kg sc): 1.35 ± 0.06 mM
Blood iCa level Hour 24 ([1]; 50 nmol/kg sc): 1.36 ± 0.04 mM
Blood iCa level Hour 0 ([1]; 50 nmol/kg sc): 1.31 ± 0.03 mM
Blood iCa level Hour 1 ([1]; 150 nmol/kg sc): 1.43 ± 0.04 mM
Blood iCa level Hour 3 ([1]; 150 nmol/kg sc): 1.49 ± 0.03 mM
Blood iCa level Hour 6 ([1]; 150 nmol/kg sc): 1.52 ± 0.05 mM
Blood iCa level Hour 9 ([1]; 150 nmol/kg sc): 1.35 ± 0.02 mM
Blood iCa level Hour 24 ([1]; 150 nmol/kg sc): 1.40 ± 0.05 mM
Blood iCa level Hour 0 ([1]; 150 nmol/kg sc): 1.30 ± 0.03 mM
increased blood ionized calcium level maintained until ([1]; female DDY mice, sc): 6 h
time of maximum increase in blood ionized calcium levels after administration ([1]; female DDY mice, sc): 3 h
Maximum cAMP response (human PTH1 receptors [2]): 66.6 ± 17.4 pmol/well
pEC50 (human PTH1 receptors [2]; cAMP production): 9.00
Maximum cAMP response (human PTH1 receptors [3]): 122.7 ± 11.5 pmol/well
pEC50 (human PTH1 receptors [3]; cAMP production): 9.05
Maximum cAMP response (rat PTH1 receptors): 52.5 ± 14.1 pmol/well
pEC50 (rat PTH1 receptors; cAMP production): 8.46

20k PEG-hPTH(1-34): hPTH(1-34) reacted with mPEG 20 k-SPA, fraction having one 20 kDa PEG molecule per PTH molecule
AUC [4]: 2693.945 ng·h/mL
MRT [4]: 18.93 h
Tmax [4]: 7.000 h
t ½ [4]: 11.346 h
